These results are taken from publication doi:10.1101/2020.04.26.062372.

For test [1], the target named is GLP-1R-SmBiT (glucagon-like peptide-1 receptor tagged at the C-terminus with SmBiT) (UniProt P43220). In words: split reporter.
Test [2] concerns the target GIPR-SmBiT (glucose-dependent insulinotropic polypeptide receptor tagged at the C-terminus with SmBiT) (UniProt P48546). The test is described as follows: split reporter.
UniProt P48546, sequence (P48546 22-466): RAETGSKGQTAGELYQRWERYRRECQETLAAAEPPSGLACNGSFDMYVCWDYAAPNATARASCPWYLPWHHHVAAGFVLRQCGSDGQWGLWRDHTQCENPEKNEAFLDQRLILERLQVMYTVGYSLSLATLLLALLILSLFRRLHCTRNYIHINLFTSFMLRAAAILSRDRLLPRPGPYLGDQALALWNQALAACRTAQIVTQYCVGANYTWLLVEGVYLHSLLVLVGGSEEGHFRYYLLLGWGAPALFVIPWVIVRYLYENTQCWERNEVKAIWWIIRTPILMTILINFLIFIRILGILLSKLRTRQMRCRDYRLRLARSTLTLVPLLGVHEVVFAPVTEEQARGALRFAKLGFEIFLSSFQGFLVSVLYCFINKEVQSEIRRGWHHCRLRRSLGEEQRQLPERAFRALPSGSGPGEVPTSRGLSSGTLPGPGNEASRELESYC

UniProt P43220, sequence (P43220 24-463): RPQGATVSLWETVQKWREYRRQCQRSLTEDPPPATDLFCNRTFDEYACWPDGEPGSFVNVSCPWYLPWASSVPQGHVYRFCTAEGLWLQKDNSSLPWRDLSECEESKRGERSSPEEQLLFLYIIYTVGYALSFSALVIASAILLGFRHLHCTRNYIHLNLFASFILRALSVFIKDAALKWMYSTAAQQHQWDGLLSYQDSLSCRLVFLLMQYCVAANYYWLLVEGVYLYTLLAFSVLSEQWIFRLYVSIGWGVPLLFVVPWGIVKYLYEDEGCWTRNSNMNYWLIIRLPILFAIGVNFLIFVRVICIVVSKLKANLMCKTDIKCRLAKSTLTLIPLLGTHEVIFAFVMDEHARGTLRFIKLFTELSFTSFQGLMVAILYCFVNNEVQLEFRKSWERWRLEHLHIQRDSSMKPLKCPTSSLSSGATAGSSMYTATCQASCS

On to LgBiT-mini-Gs, for which the t1/2 of ligand-induced recruitment came out at 1.5 min in test [1] and 7.1 min in test [2].
